Here are results for 1 substance from PMC9519379 (Cell Reports Medicine, 2022).

This assay deals with SARS-CoV-2 Spike Trimer (B.1.617.2/Delta) (SARS-CoV-2) (UniProt P0DTC2). Put plainly: single-molecule force spectroscopy.

Consider “H84T-banana lectin (H84T-BanLec) (from UniProt Q8L5H4 1-141) (designed binder)”, for which the IC50 – broadly, the midpoint of a concentration-inhibition curve – stood at 3.9 nM.
